Measured values as given in publication PMC4244684 (The Journal of biological chemistry, 2007).
Where two headings read alike, the source gives them in different places.

How the values were obtained:
Test in all cases: ITC
[1] = biological target: Su(dx) WW4 domain (Drosophila, UniProt Q9Y0H4 515-557)
[2] = biological target: T1, Su(dx) WW2 domain (Drosophila, UniProt Q9Y0H4 392-431)
[3] = biological target: T2, Su(dx) WW1 domain (Drosophila, UniProt Q9Y0H4 352-398)
T2 chain (looked up): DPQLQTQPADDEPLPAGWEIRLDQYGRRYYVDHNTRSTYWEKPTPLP

[4] = biological target: Su(dx) WW4 (F549W) mutant domain (Drosophila, UniProt Q9Y0H4 515-557, F549W)
Su(dx) WW4 (F549W) mutant domain, sequence (Q9Y0H4 515-557 F549W): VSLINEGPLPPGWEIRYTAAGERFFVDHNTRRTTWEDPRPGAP

[5] = biological target: T3, Su(dx) WW3 domain (Drosophila, UniProt Q9Y0H4 471-514)
T3 sequence (Q9Y0H4 471-514): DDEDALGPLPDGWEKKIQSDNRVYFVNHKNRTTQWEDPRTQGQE

[6] = biological target: T1, Su(dx) WW2 domain; remark: listed apart in the source
[7] = biological target: T3, Su(dx) WW3 domain; remark: listed apart in the source
[8] = biological target: Su(dx) WW3-4 tandem domain pair (Drosophila, UniProt Q9Y0H4 474-554)
Su(dx) WW3-4 tandem domain pair, sequence (Q9Y0H4 474-554): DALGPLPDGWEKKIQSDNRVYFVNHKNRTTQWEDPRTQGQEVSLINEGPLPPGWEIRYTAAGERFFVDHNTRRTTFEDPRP

[9] = biological target: Su(dx) WW3-4 (W505F) mutant tandem pair (Drosophila, UniProt Q9Y0H4 474-554, W505F)
Su(dx) WW3-4 (W505F) mutant tandem pair, sequence (Q9Y0H4 474-554 W505F): as the sequence (Q9Y0H4 474-554) above, with W32F counted along it

[10] = biological target: Su(dx) WW3-4 preloaded (saturated) with WBP1 peptide (Drosophila | , UniProt Q9Y0H4 474-554)
Su(dx) WW3-4 preloaded (saturated) with WBP1 peptide, sequence (Q9Y0H4 474-554): as the sequence (Q9Y0H4 474-554) above

T1 sequence (Q9Y0H4 392-431): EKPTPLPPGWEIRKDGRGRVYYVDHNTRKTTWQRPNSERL
Su(dx) WW4 domain, sequence (Q9Y0H4 515-557): as the sequence (Q9Y0H4 515-557 F549W) above, with W35F counted along it

B1: Notch PY motif peptide N2 (peptide)
peptide: AKQPPSYEDC
B1 was tested, and the Kd [1] was 45 µM.

B2: WBP1 peptide (peptide)
peptide: GPPPPPYPG
Work on B2 yielded a Kd [2] of 116 µM, a Kd [3] of 125 µM and a Kd [4] of 31 µM. It also gave a Kd [5] of 114 µM, a Kd [6] of 117 µM and a Kd [7] of 115 µM. The Kd [8] was 185 µM.

B3: Notch PY motif peptide N1 (peptide)
peptide: AKQPPSYEDCIK
B3 showed a Kd [2] of 199 µM, a Kd [3] of 214 µM and a Kd [4] of 15 µM. For the same binder, the Kd [9] was 97 µM, the Kd [1] was 45 µM and the Kd [5] was 208 µM. The Kd [10] was 42 µM and the Kd [8] was 95 µM.
